# Target: the molecule itself
# Assay: SEC-MALS; SEC combined with static and dynamic light scattering (SEC-SLS/DLS, right-angle light scattering) and a SEC standard curve; Superdex 200 5/150, 50 mM NaH2PO4, 500 mM NaCl, pH 8, 20 °C; after His-tag removal
protein,measurement,value
"beta-carbonic anhydrase from Trichomonas vaginalis (TvaCA1) (enzyme, TvaCA1, beta-carbonic anhydrase of Trichomonas vaginalis, gene TVAG_005270, UniProt A2ENQ8; Zinc metalloenzyme; The His-tag was removed by thrombin at an LVPRGS site; also called β-CA from T. vaginalis; source: E. coli BL21 Star (DE3), purified (Ni2+-NTA, His-tag removed by thrombin, second Ni2+-NTA; SEC in addition for crystallisation); not shown: His6, N-terminal, cleaved) MSQLELITSANQAFLEANPELTKLNKAPQRHIAIVTCMDTRLVNFAEDAIGVKRGEATVIKAAGNGIWTTGLSDIVVSLLVSIYELGVQEIFIMGHECCGMTHASTDSLGAQMLKSGIKPEDIEKFKSDLSKWVDDFKDPIDNIKNSVRCVRENPLIPKNIPIHGLLIHPDTGKVTTIINGY",stoichiometry N,2

# Reference: paper PMC7717681, “Biochemical and structural characterisation of a protozoan beta-carbonic anhydrase from Trichomonas vaginalis” (Journal of Enzyme Inhibition and Medicinal Chemistry, 2020)
